Data: patent CN1552735A

Columns and labels:
CD44抗原 (THP-1细胞系表面) [1] = biological target: CD44抗原 (THP-1细胞系表面) (UniProt P16070); experiment: flow cytometry on CD44-positive THP-1 cells, HI44a 20 μl (1 mg/ml) then PBS (positive control), goat anti-mouse IgG-FITC
CD44抗原 (THP-1细胞系表面) [2] = biological target: CD44抗原 (THP-1细胞系表面) (UniProt P16070); experiment: flow cytometry on THP-1 cells, HI44a 20 μl (1 mg/ml) then competitor anti-CD44 ScFv 100 μl (1 mg/ml), goat anti-mouse IgG-FITC

B1: 抗CD44单克隆抗体HI44a (antibody, IgG2a, V domains shown)
VH: QVKLQESGPGILQPSQTLSLTCSISGFSLNTSGMGVSWIRQPSGKGLEWLAHIYWDDGKRYNPSLKSRLTISKDTSRNQVFLKITSVDTADTGTYYCARRAYGINFAFDYWGQGTTVTVSS
VL: DIQLTQTAAILSVSPGERVSFSCRTSQSIGTSIHWYHQRTNGSPRLLIKSASESMSGIPSRFSGSGSGTDFTLSINSVESEDIAYYYCQQSNSWPLTFGAGTKLEIKR
A 结合阳性率 (CD44抗原 (THP-1细胞系表面) [1]) of 51% and a 结合阳性率 (经抗CD44 ScFv竞争后) (CD44抗原 (THP-1细胞系表面) [2]) of 27.1% were found for B1 in this work.
